Key:
Lambda exonuclease = assay: cleavage_in_vitro; settings: rate at 30,000 psi, 20 C; 89 mM glycine-KOH pH 9.4, 3.3 mM MgCl2 assay buffer; reversible pressure inhibition
[1] = test system: T4 DNA polymerase (3'-5' exonuclease) (Bacteriophage T4?); assay: cleavage_in_vitro; settings: atmospheric pressure, room temperature

Substance: Lambda DNA HindIII digest fragments
- activity (Lambda exonuclease): 0.1 bases/s

Substance: DNA size markers (lambda DNA)
- activity (bp digested in 20 min) [1]: 100

Reference: patent US6036923
